Here are results for 5 molecules from US20050085418A1 (CELLTECH R AND D, published 2005).

Some results are limits rather than exact numbers.

B1: purified human sclerostin-FLAG® fusion protein (other, UniProt Q9BQB4 24-213, looked up)
chain: QGWQAFKNDATEIIPELGEYPEPPPELENNKTMNRAENGGRPPHHPFETKDVSEYSCRELHFTRYVTDGPCRSAKPVTELVCSGQCGPARLLPNAIGRGKWWRPSGPDFRCIPDRYRAQRVQLLCPGGEAPRARKVRLVASCKCKRLTRFHNQSELKDFGTEAARPQKGRKPRPRARSAKANQAELENAY
notes: Immobilised on CM5 chips (200 and 400 RU) or on anti-FLAG M2 agarose beads; also called FLAG®-Beer; FLAG®-tagged sclerostin; not shown: FLAG tag

Assay [1] addresses purified human sclerostin-FLAG® fusion protein (human) (UniProt Q9BQB4). The experiment in a line: SPR (Biacore), immobilised sclerostin. (Surface plasmon resonance follows binding to a sensor surface in real time, without labels.)
The target of assay [2] is T1, Noggin-Fc fusion protein (murine, UniProt P97466 28-232, limits assumed).
T1 construct: also called recombinant murine noggin; not shown: Fc portion, captured and detected with anti-human Fc antibodies
T1 sequence (looked up): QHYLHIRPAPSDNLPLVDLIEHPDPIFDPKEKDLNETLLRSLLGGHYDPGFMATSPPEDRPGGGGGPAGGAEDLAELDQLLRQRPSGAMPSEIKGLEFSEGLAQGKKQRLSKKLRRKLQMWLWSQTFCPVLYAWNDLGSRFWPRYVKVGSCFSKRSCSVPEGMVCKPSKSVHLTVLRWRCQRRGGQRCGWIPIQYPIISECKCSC
Put plainly: SPR (Biacore), human sclerostin immobilised on the chip, rmNoggin injected at 0.31 to 10 ug/ml [box under the right panel].

The target in assay [3] is T1, Noggin-Fc fusion protein. Put plainly: SPR, chip-immobilised recombinant human sclerostin, graded concentrations of recombinant murine noggin (FIG. 2B). The protocol: (§1) The running buffer for Biacore analysis was HBS-EP CMD (10 mM HEPES, 150 mM NaCl, 3 mM EDTA, 0.005% polysorbate 20, and 1 mg/ml carboxyl-methyl dextran). […] The data was processed using the Bia-evaluation software by first correcting for background binding in a non-functionalized flow cell and analyzing the resulting binding curves for on/off rates.

For assay [4], the target named is T2, recombinant murine chordin (murine, UniProt Q9Z0E2 27-948, limits assumed).
T2 sequence (looked up): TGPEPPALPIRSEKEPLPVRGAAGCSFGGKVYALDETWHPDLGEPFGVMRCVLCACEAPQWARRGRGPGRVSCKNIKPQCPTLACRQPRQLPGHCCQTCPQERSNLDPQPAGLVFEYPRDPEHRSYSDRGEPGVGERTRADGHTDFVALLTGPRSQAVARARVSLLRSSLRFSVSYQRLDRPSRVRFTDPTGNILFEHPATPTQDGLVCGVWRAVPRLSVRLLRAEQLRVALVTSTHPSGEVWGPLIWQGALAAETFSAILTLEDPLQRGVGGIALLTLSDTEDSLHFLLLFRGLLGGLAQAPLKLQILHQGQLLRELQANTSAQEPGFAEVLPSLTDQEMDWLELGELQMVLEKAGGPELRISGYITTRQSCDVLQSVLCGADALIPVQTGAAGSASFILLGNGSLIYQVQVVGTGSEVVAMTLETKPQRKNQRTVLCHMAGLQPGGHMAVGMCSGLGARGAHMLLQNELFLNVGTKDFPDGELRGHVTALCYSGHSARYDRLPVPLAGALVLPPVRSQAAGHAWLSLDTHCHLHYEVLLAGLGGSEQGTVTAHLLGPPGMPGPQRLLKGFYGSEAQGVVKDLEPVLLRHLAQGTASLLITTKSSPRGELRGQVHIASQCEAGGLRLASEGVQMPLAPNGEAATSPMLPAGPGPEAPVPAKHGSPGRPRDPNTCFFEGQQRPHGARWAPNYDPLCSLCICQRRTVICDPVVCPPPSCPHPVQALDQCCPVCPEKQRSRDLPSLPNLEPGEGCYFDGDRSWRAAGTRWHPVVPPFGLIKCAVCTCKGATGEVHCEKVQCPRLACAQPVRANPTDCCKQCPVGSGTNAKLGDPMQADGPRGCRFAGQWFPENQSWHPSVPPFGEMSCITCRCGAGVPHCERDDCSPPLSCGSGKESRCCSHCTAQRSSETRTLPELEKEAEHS
Put plainly: SPR, chip-immobilised recombinant human sclerostin, graded concentrations of recombinant murine chordin (FIG. 2A). The protocol:
as §1

Assay [5] has as its target T2, recombinant murine chordin. Put plainly: SPR (Biacore), human sclerostin immobilised on the chip, rmChordin injected at 0.62 to 10 ug/ml [box under the left panel].
In assay [6] the target is B1. The experiment in a line: SPR (Biacore), immobilised sclerostin. The protocol:
The running buffer for Biacore analysis was HBS-EP CMD (10 mM HEPES, 150 mM NaCl, 3 mM EDTA, 0.005 % polysorbate 20, and 1 mg/ml carboxyl-methyl dextran). […] BMP proteins were diluted in running buffer and injected over the sensor chip using the Biacore 3000 instrumentation. The data was processed using the Bia-evaluation software (Biacore) by first correcting for background binding in a non-functionalized flow cell and analyzing the resulting binding curves for on/off rates.

The Kd is the constant that tells how readily two partners part at equilibrium. In assay [1], BMP-5 (ligand) displayed a Kd of under 15 nM.

As for BMP-7 (ligand), in assay [1], the Kd was under 15 nM.

As to BMP-4 (ligand), the Kd in assay [1] was under 15 nM.

As usually defined, the koff is the first-order rate constant of dissociation. As a reminder, the kon is the rate constant with which the complex forms. Consider B1, for which the dissociation rate constant (koff) was determined as 0.00435 s⁻¹ with Noggin-Fc fusion protein [2] and 0.00209 s⁻¹ in assay [5]. Besides, the kon in the assay with Noggin-Fc fusion protein [2] was 1.46e+06 M⁻¹ s⁻¹; in assay [5], 1.18e+06 M⁻¹ s⁻¹. For the same molecule, the figures for the Kd (with Noggin-Fc fusion protein [3]; in assay [4]) were 2.92 nM and 1.76 nM, respectively.

B2: BMP-2 (ligand)
chain: QAKHKQRKRLKSSCKRHPLYVDFSDVGWNDWIVAPPGYHAFYCHGECPFPLADHLNSTNHAIVQTLVNSVNSKIPKACCVPTELSAISMLYLDENEKVVLKNYQDMVVEGCGCR
modifications: Disulfide-linked homodimer; one copy of the mature chain is given.
notes: Bought recombinant protein; also called recombinant BMP protein (R&D Systems)
Turning to B2, the Kd in assay [6] is under 10 nM.
